Biological target: T1, C-reactive protein (CRP) (human, UniProt P02741 19-224)
T1 sequence: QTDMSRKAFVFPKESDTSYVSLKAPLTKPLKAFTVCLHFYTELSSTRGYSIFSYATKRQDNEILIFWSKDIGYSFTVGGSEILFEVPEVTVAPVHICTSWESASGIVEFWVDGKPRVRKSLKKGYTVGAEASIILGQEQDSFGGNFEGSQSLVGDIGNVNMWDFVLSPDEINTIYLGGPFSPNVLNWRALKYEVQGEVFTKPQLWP
Assay: competition

B1: CRP-aptamer (40-mer) (ssDNA)
DNA: CGAAGGGGATTCGAGGGGTGATTGCGTGCTCCATTTGGTG
modifications: 5'-biotin-(CH2)6
  binding result: binds

Source: paper PMC9073860
